Reference: patent US20180169257A1 (Seagen, published 2018)
Where a chain is given by its changes, count along the chain named.

B1: chimeric 20F3 (antibody, V domains shown)
VH: QIQLVQSGPELKKPGETVKISCKASGYTFTNYGMNWVKQAPGKDLKWMGWINTYSGEPRYADDFKGRFAFSLEKSANTAYLQINNLKNEDMATYFCARDYGRWYFDVWGTGTTVTVSS
VL: QIVLSQSPAILSASPGEKVTMTCRASSSVSHMHWYQQKPGSSPKPWIYATSNLASGVPARFSGSGSGTSYSLTISRVEAEDAATYYCQQWSSTPRTFGGGTKLEIKR
notes: It was detected with goat anti-human IgG, so the constant regions are human, but they are not specified
B2: humanized 20F3 HCLB (antibody, V domains shown)
VH: QIQLVQSGSELKKPGASVKVSCKASGYTFTNYGMNWVRQAPGQDLEWMGWINTYSGEPRYADDFKGRFVFSLDKSVNTAYLQISSLKAEDTAVYYCARDYGRWYFDVWGQGTTVTVSS
VL: EIVLTQSPATLSLSPGERATLSCRASSSVSHMHWYQQKPGQAPRPWIYATSNLASGIPARFSGSGSGTDYTLTISSLEPEDFAVYYCQQWSSTPRTFGGGTKVEIKR
notes: Humanized heavy chain HC paired with humanized light chain LB
B3: humanized 20F3 HCLC (antibody, V domains shown)
VH: B2 VH
VL: B2 VL with E1Q, T5S
notes: Humanized heavy chain HC paired with humanized light chain LC
B4: humanized 20F3 HELA (antibody, V domains shown)
VH: B2 VH with R38K, E46K, V69A, Y95F
VL: B2 VL with P45L, W46L, Y70F
notes: Humanized heavy chain HE paired with humanized light chain LA
B5: humanized 20F3 HELB (antibody, V domains shown)
VH: B2 VH with R38K, E46K, V69A, Y95F
VL: B2 VL
notes: Humanized heavy chain HE paired with humanized light chain LB
B6: humanized 20F3 HALC (antibody, V domains shown)
VH: B2 VH with I2V, D44G, K74T, N77S
VL: B2 VL with E1Q, T5S
notes: Humanized heavy chain HA paired with humanized light chain LC
B7: humanized 20F3 HBLD (antibody, V domains shown)
VH: B2 VH with D44G, N77S
VL: B2 VL with E1Q, T5S, L21M, I57V
notes: Humanized heavy chain HB paired with humanized light chain LD
B8: humanized 20F3 HBLC (antibody, V domains shown)
VH: B2 VH with D44G, N77S
VL: B2 VL with E1Q, T5S
notes: Humanized heavy chain HB paired with humanized light chain LC
B9: humanized 20F3 HCLA (antibody, V domains shown)
VH: B2 VH
VL: B2 VL with P45L, W46L, Y70F
notes: Humanized heavy chain HC paired with humanized light chain LA
B10: humanized 20F3 HDLA (antibody, V domains shown)
VH: B2 VH with E46K
VL: B2 VL with P45L, W46L, Y70F
notes: Humanized heavy chain HD paired with humanized light chain LA
B11: humanized 20F3 HELC (antibody, V domains shown)
VH: B2 VH with R38K, E46K, V69A, Y95F
VL: B2 VL with E1Q, T5S
notes: Humanized heavy chain HE paired with humanized light chain LC
B12: humanized 20F3 HALA (antibody, V domains shown)
VH: B2 VH with I2V, D44G, K74T, N77S
VL: B2 VL with P45L, W46L, Y70F
notes: Humanized heavy chain HA paired with humanized light chain LA
B13: humanized 20F3 HDLD antibody (antibody, V domains shown)
VH: B2 VH with E46K
VL: B2 VL with E1Q, T5S, L21M, I57V
notes: also called h20F3_HDLD; h20F3_HDLD-AF647
B14: humanized 20F3 HBLB (antibody, V domains shown)
VH: B2 VH with D44G, N77S
VL: B2 VL
notes: Humanized heavy chain HB paired with humanized light chain LB
B15: humanized 20F3 HDLC (antibody, V domains shown)
VH: B2 VH with E46K
VL: B2 VL with E1Q, T5S
notes: Humanized heavy chain HD paired with humanized light chain LC
B16: humanized 20F3 HDLB (antibody, V domains shown)
VH: B2 VH with E46K
VL: B2 VL
notes: Humanized heavy chain HD paired with humanized light chain LB
B17: humanized 20F3 HBLA (antibody, V domains shown)
VH: B2 VH with D44G, N77S
VL: B2 VL with P45L, W46L, Y70F
notes: Humanized heavy chain HB paired with humanized light chain LA
B18: humanized 20F3 HALD (antibody, V domains shown)
VH: B2 VH with I2V, D44G, K74T, N77S
VL: B2 VL with E1Q, T5S, L21M, I57V
notes: Humanized heavy chain HA paired with humanized light chain LD
B19: humanized 20F3 HELD (antibody, V domains shown)
VH: B2 VH with R38K, E46K, V69A, Y95F
VL: B2 VL with E1Q, T5S, L21M, I57V
notes: Humanized heavy chain HE paired with humanized light chain LD
B20: humanized 20F3 HCLD (antibody, V domains shown)
VH: B2 VH
VL: B2 VL with E1Q, T5S, L21M, I57V
notes: Humanized heavy chain HC paired with humanized light chain LD
B21: humanized 20F3 HALB (antibody, V domains shown)
VH: B2 VH with I2V, D44G, K74T, N77S
VL: B2 VL
notes: Humanized heavy chain HA paired with humanized light chain LB
B22: murine 20F3 antibody (antibody, mouse IgG1, V domains shown)
VH: B1 VH
VL: B1 VL
notes: also called mouse 20F3
B23: c20F3-1910(2) ADC (other)
VH: B1 VH
VL: B1 VL
modifications: PBD dimer drug-linker 1910, load 2 by its name; attachment site not stated for the chimeric antibody
B24: c20F3-vcMMAE(4) ADC (other)
VH: B1 VH
VL: B1 VL
modifications: MMAE via a cathepsin-cleavable valine-citrulline linker, load 4 by its name; attachment sites not stated
B25: h20F3ec (antibody, human IgG1, kappa, V domains shown)
VH: B2 VH with E46K
VL: B2 VL with E1Q, T5S, L21M, I57V

These binders were tested against T1, human NTB-A (human, UniProt Q96DU3 22-332) (assay: saturation binding of Alexa Fluor 647-labeled antibody on Ramos cells, flow cytometry).
T1 construct: Endogenous NTB-A on antigen-positive Ramos cells (also on MM.1R, WIL2-S and Raji cells and normal human T and B lymphocytes); also called SLAMF6; human NTB-A isoform-1
T1 sequence: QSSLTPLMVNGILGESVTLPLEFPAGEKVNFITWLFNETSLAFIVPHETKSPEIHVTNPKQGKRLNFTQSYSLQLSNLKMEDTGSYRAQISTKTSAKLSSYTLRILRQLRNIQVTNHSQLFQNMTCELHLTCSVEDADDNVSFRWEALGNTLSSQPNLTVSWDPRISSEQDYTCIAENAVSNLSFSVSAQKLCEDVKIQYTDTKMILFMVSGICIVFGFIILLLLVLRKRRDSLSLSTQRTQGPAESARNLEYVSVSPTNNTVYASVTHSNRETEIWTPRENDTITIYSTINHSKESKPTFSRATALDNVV
Description: (§1) Antigen positive Ramos cells were plated at 1×10⁵ cells per well in a 96 well V-bottom plate (Thermo Scientific, Rochester, N.Y.). Three-fold serial dilutions of 2× concentrated antibodies were prepared in FACs buffer (PBS+2% fetal bovine serum) and were added to the cells in duplicate. The antibody solutions were incubated with cells for 1 hour on ice, protected from light. The cells were washed twice with FACs buffer and analyzed on the LSRII flow cytometer (BD BioSciences, San Jose, Calif.). KD values were determined with GraphPad Prism software (La Jolla, Calif.). Anti-human NTB-A antibodies h20F3_HDLD and chimeric 20F3 were tested for binding to 293-F17 cells overexpressing cynomolgus-NTB-A. 293-F17/cynomolgus-NTB-A cells were plated at 5×10⁵ cells/well in FACS buffer (PBS+2% fetal bovine serum+0.02% azide) and incubated with 20 μg/mL antibody for 30 minutes on ice. The cells were washed twice and stained with 30 μg/mL goat anti-human IgG-PE (Jackson ImmunoResearch, West Grove, Pa.) for 30 minutes, on ice and protected from light. Cells were again washed twice with FACs buffer. Stained cells were analyzed on the FACs Calibur flow cytometer (BD BioSciences, San Jose, Calif.).
B1 gave a Kd of 1.68 nM.

What follows are binders tested against T1, human NTB-A (assay: competition flow cytometry on Ramos cells; competitor 5 nM mouse 20F3-Alexa Fluor 647).
Description: (§2) Antigen positive Ramos cells were plated at 1×10⁵ cells per well in a 96 well V-bottom plate (Thermo Scientific, Rochester, N.Y.). Fifty-fold serial dilutions of antibodies were prepared in FACs buffer (PBS+2% fetal bovine serum) and were added to the cells in duplicate. The antibody solutions were incubated with cells for 1 hour on ice, protected from light. The cells were washed twice with FACs buffer and analyzed on the LSRII flow cytometer (BD BioSciences, San Jose, Calif.). EC50 values were determined with GraphPad Prism software (La Jolla, Calif.).
B2 gave an EC50 of 5 nM.
B3 gave an EC50 of 8 nM.
B4 gave an EC50 of 31 nM.
For B5, the EC50 was 4 nM.
In the case of B6, the EC50 is reported as 27 nM.
B7 gave an EC50 of 4 nM.
For B8, the EC50 was 12 nM.
Work on B9 yielded an EC50 of 25 nM.
B10 was tested, and the EC50 was 15 nM.
Binder B11 has an EC50 of 10 nM.
B12 gave an EC50 of 147 nM.
B13 showed an EC50 of 3 nM.
With B14 the EC50 was 6 nM.
Work on B15 yielded an EC50 of 6 nM.
B16 was tested, and the EC50 was 3 nM.
B17 gave an EC50 of 71 nM.
With B18 the EC50 was 12 nM.
With B19 the EC50 was 2 nM.
B20 showed an EC50 of 5 nM.
For B21, the EC50 was 12 nM.
B22 gave an EC50 of 2 nM.

What follows are binders tested against T1, human NTB-A (assay: saturation binding of Alexa Fluor 647-labeled antibody (h20F3_HDLD-AF647) on Ramos cells, flow cytometry).
Description: as §1
In the case of B13, the Kd is reported as 2.2 nM.

These binders were tested against T1, human NTB-A (assay: antigen binding competition assay on Ramos cells).
Description: as §2
B13 was tested, and the EC50 was ~12 nM.

Each binder was assayed against T1, human NTB-A (assay: cell-based or functional assay).
In the case of B23, the “IC50, 96 hour cytotoxicity (Cell-Titer Glo), resting human B cells, donor 1” value is reported as 1.47 µg/mL, the “IC50, 96 hour cytotoxicity (Cell-Titer Glo), resting human B cells, donor 2” value is reported as 1.27 µg/mL and the “IC50, 96 hour cytotoxicity (Cell-Titer Glo), resting human B cells, donor 3” value is reported as 3.42 µg/mL. The “IC50, 96 hour cytotoxicity (Cell-Titer Glo), resting human T cells, donor 4” value was > 10 µg/mL, the “IC50, 96 hour cytotoxicity (Cell-Titer Glo), resting human T cells, donor 5” value was > 10 µg/mL and the “IC50, 96 hour cytotoxicity (Cell-Titer Glo), resting human T cells, donor 6” value was > 10 µg/mL.
With B24 the “IC50, 96 hour cytotoxicity (Cell-Titer Glo), resting human B cells, donor 1” value was > 10 µg/mL, the “IC50, 96 hour cytotoxicity (Cell-Titer Glo), resting human B cells, donor 2” value was > 10 µg/mL and the “IC50, 96 hour cytotoxicity (Cell-Titer Glo), resting human B cells, donor 3” value was > 10 µg/mL.

Target: T1, human NTB-A
Experiment: cell-based or functional assay
Remark: another data set of the same source
B25 was tested, and the “Maximum % Phagocytosis (ADCP), Raji cell line” value was 44%, the “Maximum % Phagocytosis (ADCP), WIL2-S cell line” value was 45% and the “Maximum % Phagocytosis (ADCP), normal human T cells” value was 33%.
B13 was tested, and the “Maximum % Phagocytosis (ADCP), Raji cell line” value was 48%, the “Maximum % Phagocytosis (ADCP), WIL2-S cell line” value was 45% and the “Maximum % Phagocytosis (ADCP), normal human T cells” value was 42%.
